The subject of the assay is C3H mice. The assay can be described thus: Oral tolerance induction: survival of mice after sensitisation to ovalbumin by subcutaneous injection. It counts as in vivo. The settings on record: 100 micrograms ovalbumin per mouse per day over 5 consecutive days, last dose 7 days before s.c. sensitisation with free ovalbumin (100 micrograms per mouse) on D0 and D14. As for the experimental part: This preparation is administered via the oral route to C3H mice at the dose of 100 micrograms of encapsulated ovalbumin (per mouse per day) over 5 consecutive days. The last oral administration took place 7 days before the sensitisation of the animals to ovalbumin which is carried out by subcutaneous injection of free ovalbumin (100 micrograms per mouse) on days DO and D14. 90% of the mice survive the second injection while less than 30% of the mice administered with the microspheres without ovalbumin or with the same dose of non-encapsulated ovalbumin survive.

B1: ovalbumin (protein, UniProt P01012 2-386, looked up)
Ovalbumin: GSIGAASMEFCFDVFKELKVHHANENIFYCPIAIMSALAMVYLGAKDSTRTQINKVVRFDKLPGFGDSIEAQCGTSVNVHSSLRDILNQITKPNDVYSFSLASRLYAEERYPILPEYLQCVKELYRGGLEPINFQTAADQARELINSWVESQTNGIIRNVLQPSSVDSQTAMVLVNAIVFKGLWEKAFKDEDTQAMPFRVTEQESKPVQMMYQIGLFRVASMASEKMKILELPFASGTMSMLVLLPDEVSGLEQLESIINFEKLTEWTSSNVMEERKIKVYLPRMKMEEKYNLTSVLMAMGITDVFSSSANLSGISSAESLKISQAVHAAHAEINEAGREVVGSAEAGVDAASVSEEFRADHPFLFCIKHIATNAVLFFGRCVSP
For B1, the “mice surviving the second injection of free ovalbumin” value is recorded as “less than 30%”.

Source of the values: patent US6440461B1, “Poly(methylidene malonate) microspheres, preparation method and pharmaceutical compositions containing them” (Virsol, priority 1998, dated 2002).
